From US20210388043A1

Biological target: CD47 (human) (UniProt Q08722)
Assay: cell binding (FACS); PC-3 cells
Settings: Fc fusion

Substance: SIRPαD1-Fc
- EC50: 0.58 µg/mL
